# Test results taken from patent US20240238420A1 (WUHAN UNIVERSITY, published 2024).
# B1: anti-CD33 scFv clone HM195, scFv-luciferase fusion protein (scFv, V domains shown)
# VH: QVQLVQSGAEVKKPGSSVKVSCKASGYTFTDYNMHWVRQAPGQGLEWIGYIYPYNGGTGYNQKFKSKATITADESTNTAYMELSSLRSEDTAVYYCARGRPAMDYWGQGTLVTVSS
# VL: DIQMTQSPSSLSASVGDRVTITCRASESVDNYGISFMNWFQQKPGKAPKLLIYAASNQGSGVPSRFSGSGSGTDFTLTISSLQPDDFATYYCQQSKEVPWTFGQGTKVEIK
# notes: Tested as an scFv-luciferase fusion protein
# B2: anti-CD123 scFv clone 32716, scFv-luciferase fusion protein (scFv, V domains shown)
# VH: QIQLVQSGPELKKPGETVKISCKASGYIFTNYGMNWVKQAPGKSFKWMGWINTYTGESTYSADFKGRFAFSLETSASTAYLHINDLKNEDTATYFCARSGGYDPMDYWGQGTSVTVSS
# VL: DIVLTQSPASLAVSLGQRATISCRASESVDNYGNTFMHWYQQKPGQPPKLLIYRASNLESGIPARFSGSGSRTDFTLTINPVEADDVATYYCQQSNEDPPTFGAGTKLELK
# What was measured:
# [1] = target: CD123 combined mutant R84Q-V85I (Homo sapiens (Human)) (UniProt P26951); test: scFv-luciferase binding to transfected HEK 293T cells (FIG. 4A)
# [2] = target: CD123 combined mutant R84Q-V85M (Homo sapiens (Human)) (UniProt P26951); test: as above
# [3] = target: T1, wild-type CD33 protein (Homo sapiens (Human), UniProt P20138 18-364); test: scFv-luciferase binding to HEK 293T cells transfected with wildtype or mutant CD33 (RLU)
# T1 construct: Expressed in transfected HEK 293T cells; A flag tag is mentioned for the Western blot constructs; no signal peptide limits are stated; also called Siglec3
# Protocol: FIG. 1A-D. Determination of epitopes of CD33 that mediate the interaction by anti-CD33 scFv clone my9.6 or HM195. (A) Binding affinity of indicated CD33 mutations with anti-CD33 scFV clone my9.6. HEK 293T cells were transfected with wildtype or indicated CD33 mutant and then incubated with anti-CD33 scFV-luciferase fusion proteins, RLU: relative luminescence units. (B) Western blot of CD33 expression. HEK293T cells were transfected with flag tagged wild-type or indicated CD33 mutants. (C) Binding affinity of additional CD33 mutations. RLU: relative luminescence units (D) Western blot of CD33 expression. HEK293T cells were transfected with flag tagged wild-type or indicated CD33 mutants.
# HEK 293T cells were transfected with wildtype or certain CD33 mutants and then incubated with anti-CD33 scFV-luciferase fusion proteins. The mutated residues included W22, C41, W60, I105, D112, Y116, F118, S131, and P132. The tested antibodies included my9.6 and HM195. […] FIGS. 1B and […] present Western blot images of CD33 expression from the transfected cells.
# [4] = target: T2, wild-type CD123 protein (Homo sapiens (Human), UniProt P26951 19-378); test: scFv-luciferase binding to HEK 293T cells transfected with wildtype or mutant CD123
# T2 construct: no signal peptide limits are stated; also called alpha chain of interleukin-3 receptor
# Protocol: HEK 293T cells were transfected with wildtype or indicated CD123 mutant and then incubated with anti-CD123 scFv-luciferase fusion proteins. (B) Western blot of CD123 expression. HEK293T cells were transfected with flag tagged wild-type or indicated CD123 mutants.
# HEK 293T cells were transfected with wildtype or indicated CD123 mutant and then incubated with anti-CD123 scFv-luciferase fusion proteins. […] The expression of these mutants was confirmed by Western blot (FIG. 3B).
# T1 sequence (P20138 18-364 limits assumed): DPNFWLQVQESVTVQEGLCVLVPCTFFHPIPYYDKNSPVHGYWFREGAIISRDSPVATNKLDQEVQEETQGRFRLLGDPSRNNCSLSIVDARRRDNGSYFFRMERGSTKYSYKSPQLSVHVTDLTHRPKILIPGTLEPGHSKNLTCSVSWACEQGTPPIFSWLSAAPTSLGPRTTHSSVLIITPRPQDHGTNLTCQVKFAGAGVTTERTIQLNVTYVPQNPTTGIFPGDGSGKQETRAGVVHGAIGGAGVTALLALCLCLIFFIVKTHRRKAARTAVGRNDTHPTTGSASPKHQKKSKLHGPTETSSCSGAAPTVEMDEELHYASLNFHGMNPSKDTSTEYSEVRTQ
# Chain of CD123 combined mutant R84Q-V85I (Homo sapiens (Human)) (P26951 19-378 R84Q/V85I limits assumed): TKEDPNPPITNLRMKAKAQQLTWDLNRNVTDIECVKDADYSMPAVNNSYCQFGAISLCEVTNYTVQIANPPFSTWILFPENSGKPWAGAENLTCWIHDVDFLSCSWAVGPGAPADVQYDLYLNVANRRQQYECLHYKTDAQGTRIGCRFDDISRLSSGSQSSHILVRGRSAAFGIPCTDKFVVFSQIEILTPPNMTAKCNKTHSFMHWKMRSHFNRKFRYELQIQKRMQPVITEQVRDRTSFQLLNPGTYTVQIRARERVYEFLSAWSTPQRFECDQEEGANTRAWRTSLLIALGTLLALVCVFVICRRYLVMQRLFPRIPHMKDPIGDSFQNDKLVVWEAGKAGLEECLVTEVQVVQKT
# T2 sequence (P26951 19-378 limits assumed): as the sequence (P26951 19-378 R84Q/V85I limits assumed) above, with Q66R, I67V counted along it
# Chain of CD123 combined mutant R84Q-V85M (Homo sapiens (Human)) (P26951 19-378 R84Q/V85M limits assumed): as the sequence (P26951 19-378 R84Q/V85I limits assumed) above, with I67M counted along it
molecule,measurement,setting,value
"anti-CD123 scFv clone CSL362, scFv-luciferase fusion protein",fold decrease of affinity (combined mutant against reference),[1],100 fold
same,fold decrease of affinity (combined mutant against reference),[2],100 fold
B1,binding result,[3],binds
B2,binding result,[4],binds
